Data as given in article PMC3972249.
Changes are numbered by the printed parent chain. Numbers in names are those of the source.

B1: NEDD8-activating enzyme (NAE), catalytic subunit UBA3 I310N (Homo sapiens; I310N) (protein)
chain: ADGEEPEKKRRRIEELLAEKMAVDGGCGDTGDWEGRWNHVKKFLERSGPFTHPDFEPSTESLQFLLDTCKVLVIGAGGLGCELLKNLALSGFRQIHVIDMDTIDVSNLNRQFLFRPKDIGRPKAEVAAEFLNDRVPNCNVVPHFNKIQDFNDTFYRQFHIIVCGLDSIIARRWINGMLISLLNYEDGVLDPSSIVPLIDGGTEGFKGNARVILPGMTACIECTLELYPPQVNFPMCTIASMPRLPEHCIEYVRMLQWPKEQPFGEGVPLDGDDPEHIQWIFQKSLERASQYNIRGVTYRLTQGVVKRINPAVASTNAVIAAVCATEVFKIATSAYIPLNNYLVFNDVDGLYTYTFEAERKENCPACSQLPQNIQFSPSAKLQEVLDYLTNSASLQMKSPAITATLEGKNRTLYLQSVTSIEERTRPNLSKTLKELGLVDGQELAVADVTTPQTVLFKLHFTS
notes: recombinant human UBA3 (isoform 1) in NAE complex; with NAEα (APPBP1); NEDD8
B2: NEDD8-activating enzyme (NAE), catalytic subunit UBA3 (NAEβ) (Homo sapiens) (protein)
chain: B1 chain with N309I
notes: as for B1

Substrate: Nc1ncnc2c1ncn2[C@@H]1O[C@H](COP(=O)(O)OP(=O)(O)OP(=O)(O)O)[C@@H](O)[C@H]1O
Test: KM from ATP titration in ATP:PPi exchange assay
Assay type: biochemical, Homo sapiens

Protein	Km [µM]
B1	20
B2	80
